This data set has as its target T1, Upc2A DNA-binding domain (Candida glabrata) (UniProt Q6FX18).
T1 sequence: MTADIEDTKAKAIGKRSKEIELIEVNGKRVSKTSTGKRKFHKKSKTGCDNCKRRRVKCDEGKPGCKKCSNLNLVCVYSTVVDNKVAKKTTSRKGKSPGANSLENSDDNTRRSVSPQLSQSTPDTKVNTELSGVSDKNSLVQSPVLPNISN
Kind of data set: DNase I footprinting. The conditions noted are these: 5' amino-MC6 on reverse strand.

Consider “ACTGCCACACAGAAGAGCAGCGGGACTACCGGAACACGATTAGCCTTCGTTTACATGTTGGCAAACCCAGGACATAGATCAGAGTGTATTACATTAGCACAGACCGGCCGTGGGTAAGTTTTTCCTGACTAAAATGGCCGCAGCTGCAAGTCCACGGAATATTTCCCTTTTTTGCTCGATAAGTTGTAC (double strand) [CDR1 promoter DNase I probe]”, for which the binding entry is “binds”.

Source of the values: paper PMC8509923.
